# Where two headings read alike, the source gives them in different places.
# Tests used:
# glucose metabolism = assay type: in vivo, dog; conditions: dogs, estimate (90% CI)
# [1] = dog, in vivo, po
# [2] = dog, in vivo
# [3] = in vivo; cited from earlier work
# [4] = dog, in vivo; remark: listed apart in the source
substance,measurement,setting,value
insulin tregopil,Mean difference (human insulin-tregopil): GIR AUC0-120 min,glucose metabolism; intraportal 3.6 pmol/kg/min,-24.1 mg/kg
same,"Mean difference (human insulin-tregopil): NHGB, last 30 min period 1",glucose metabolism; intraportal 3.6 pmol/kg/min,0.53 mg/kg/min
same,Mean difference (human insulin-tregopil): GIR AUC120-240 min,glucose metabolism; intraportal 12.0 pmol/kg/min,-74 mg/kg
same,"Mean difference (human insulin-tregopil): NHGB, last 30 min period 2",glucose metabolism; intraportal 12.0 pmol/kg/min,0.30 mg/kg/min
same,"Mean difference (human insulin-tregopil): non-hepatic glucose uptake, last 30 min period 2",glucose metabolism; intraportal 12.0 pmol/kg/min,-1.6 mg/kg/min
same,"Mean difference (human insulin-tregopil): ΔNHGB, period 1 to period 2",glucose metabolism; intraportal 3.6 then 12.0 pmol/kg/min,0.2 mg/kg/min
same,Cmax of first dose compared with second dose,[1],117%
same,Insulin AUC0–120 of first dose compared with second dose,[1],118%
same,Mean Cmax of first dose compared with second dose,[1],88%
same,tmax,[1],20 min
same,Fraction extracted on first-pass by the liver,[2],one-third
same,Time to peak concentration (tmax),[3],30 min
same,Off-times,"dog, in vivo",≤ 120 min
same,tmax,"dog, in vivo",≤ 20 min
same,Duration of PD effect after a dose,"dogs, oral dose, statement in discussion",90 min
same,Median tmax,[4],20 min

# — article PMC6281755 (Diabetes, obesity & metabolism, 2018)
